Results reported in patent US20010010923A1, “MODIFIED CARBOXYPEPTIDASE” (priority 1997, published 2001).
Where a chain is given by its changes, count along the chain named. Names may count otherwise. Marks after values point to notes of the source that are not given here.

Experiments:
[1] = Transpeptidation of Bz-G-A-R-A-R-A-OH (arginine at P1) with H-Leu-NH2, Table 1; format: biochemical; details: [N] 375 mM H-Leu-NH2; 2mM substrate; pH 7.5; [E] 0.1 mg/mL
Protocol: The mutant carboxypeptidase enzvmes used in these studies were produced by site-directed mutagenesis, essentially following the procedures described in published PCT Patent Application No. WO 95/20039. In general, oligonucleotides synthesized to encode the amino acid substitution were used to produce the mutant enzymes.
(§1) Transamidation reactions were carried out generally as described in PCT Application WO 95/20039. In general, the method included dissolving the nucleophile (H-Leu-NH2, unless otherwise indicated) in 50 mM HEPES, 5 mM EDTA and adjusting the pH to 7.5, 5 μl of peptide substrate (8 mM Bz-G-A-R-A-R-A-OH, unless otherwise indicated, in methanol) was added to 190 μl nucleophile solution followed by 5 μl enzyme, […]
(§2) During the reaction, 20 μl aliquots were removed from the reaction mixture and added to 50 μl 1% trifluoroacetic acid to quench the reaction. The reactant composition was determined by HPLC using a Waters HPLC equipped with a C-18 Waters Novapac 4μ reverse phase column and various gradients of acetonitrile in 0.1% trifluoroacetic acid. The separation was monitored at 254 nm allowing the direct quantification of the products from the integrated peak areas. The composition of the reaction mixture was determined at least twvice during the reaction, the first when 20-50% (preferably 35%) of the substrate had been consumed in the reaction and the second time when 50-90% (preferably 80%) of the peptide substrate had been consumed.
The reaction products were collected and identified by amino acid analysis after acid hydrolysis using a Pharmacia Alpha Plus analyzer. Further identification was obtained by co-chromatography of authentic standard compounds.
(§3) The fraction of aminolysis (fa) was expressed as the ratio between the formed aminolysis product and the sum of all products formed. Unconsumed substrate was disregarded in the calculations.

[2] = Transpeptidation of Bz-G-A-R-A-R-X-OH at pH 7.5 at 50% substrate consumption, Table 4; format: biochemical; parameters: key to fa: fraction: aminolysis product / sum of all products formed; details: for Pmax (peak product yield) / fa: 375 mM H-Leu-NH2
Procedure, shortened: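 Transamidation was performed by dissolving the H-Leu-NH2 nucleophile in 50 mM HEPES with 5 mM EDTA at pH 7.5, then adding the Bz-G-A-R-A-R-X-OH peptide substrate in methanol followed by enzyme. Aliquots were quenched in 1% trifluoroacetic acid and analysed by C-18 reverse-phase HPLC at 254 nm. The fraction of aminolysis was the aminolysis product divided by all products formed.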

[3] = Transpeptidation of Bz-G-A-R-A-R-X-OH at pH 6.5 at 50% substrate consumption, Table 5; format: biochemical; parameters: key to fa: fa = aminolysis product / sum of all products formed; details: for Pmax (peak product yield) / fa: 750 mM H-Leu-NH2; for fa / t: 50% substrate consumption; for t: 750 mM H-Leu-NH2, 2 mM substrate, [E] 0.1 mg/mL
Protocol: Transamidation reactions were carried out generally as described in PCT Application WO 95/20039. In general, the method included dissolving the nucleophile (H-Leu-NH2, unless otherwise indicated) in 50 mM HEPES, […], 5 μl of peptide substrate (8 mM Bz-G-A-R-A-R-A-OH, unless otherwise indicated, in methanol) was added to 190 μl nucleophile solution followed by 5 μl enzyme, resulting in a substrate concentration of 0.2 mM.
as §2
The fraction of aminolysis (fa) was expressed as the ratio between the formed aminolysis product and the sum of all products formed. Unconsumed substrate was disregarded in the calculations. […]

[4] = Transamidation of Bz-G-A-R-A-R-A-OH, Table 6; format: biochemical; details: [S] = 2 mM; H-Leu-NH2 375 mM; pH 7.5; [E] 0.1 mg/mL
Protocol: as §1, §2, §3
Site specific mutagenesis was performed as described for Example 1 to generate the specific mutants described below. Transamidation reactions were performed as described in the previous examples.

[5] = Transamidation of FA-Arg-Ala-OH, Table 6; format: biochemical; details: [S] = 2 mM; H-Leu-NH2 375 mM; pH 7.5; [E] 0.1 mg/mL
[6] = Transamidation of Bz-G-A-R-A-R-A-OH, Table 6; format: biochemical; details: [S] = 2 mM; H-Leu-NH2 375 mM; pH 7.5; [E] 0.1 mg/mL; remark: listed apart in the source
[7] = Transpeptidation of FA-Ala-Xaa-OH with H-Gly-NH2, Table 2; format: biochemical; details: 1.9 M H-Gly-NH2, pH 7.5, room temperature
Procedure, shortened: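 Enzyme reacted with 0.2 mM peptide substrate and nucleophile in 50 mM HEPES, 5 mM EDTA, pH 7.5; aliquots quenched in 1% TFA. Products quantified by reverse-phase HPLC at 254 nm at two conversion points (20-50% and 50-90% substrate consumed). Fraction of aminolysis = aminolysis product over all products, ignoring unconsumed substrate.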

[8] = Transpeptidation of FA-Ala-OBzl with H-Leu-NH2, Table 3; format: biochemical; details: FA-Ala-OBzl 0.2 mM; H-Leu-NH2; pH 7.5
Procedure, shortened: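 Site-directed mutant enzymes were reacted with H-Leu-NH2 in 50 mM HEPES, 5 mM EDTA, pH 7.5, with acyl-donor substrate at 0.2 mM final. Products were quantified by C-18 RP-HPLC at 254 nm at about 35% and 80% substrate consumption. fa is aminolysis product over all products; famax is fa at nucleophile saturation, and KN(app) is the nucleophile concentration giving famax/2.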

[9] = ratio of hydrolysis rates, background statement; cited from earlier work
[10] = leaving group A, 50% substrate consumption
[11] = leaving group A, 50% substrate consumption, 375 mM H-Leu-NH2, 2 mM substrate, [E] 0.1 mg/mL
[12] = leaving group I, 50% substrate consumption
[13] = leaving group L, 50% substrate consumption
[14] = leaving group M, 50% substrate consumption
[15] = leaving group V, 50% substrate consumption

B1: L178S: carboxypeptidase Y S1 mutant, substitution L178S (protein, UniProt P00729 112-532, looked up, variant L178S)
Carboxypeptidase Y: KIKDPKILGIDPNVTQYTGYLDVEDEDKHFFFWTFESRNDPAKDPVILWLNGGPGCSSLTGLFFELGPSSIGPDLKPIGNPYSWNSNATVIFLDQPVNVGFSYSGSSGVSNTVAAGKDVYNFLELFFDQFPEYVNKGQDFHIAGESYAGHYIPVFASEILSHKDRNFNLTSVLIGNGSTDPLTQYNYYEPMACGEGGEPSVLPSEECSAMEDSLERCLGLIESCYDSQSVWSCVPATIYCNNAQLAPYQRTGRNVYDIRKDCEGGNLCYPTLQDIDDYLNQDYVKEAVGAEVDHYESCNFDINRNFLFAGDWMKPYHTAVTDLLNQDLPILVYAGDKDFICNWLGNKAWTDVLPWKYDEEFASQKVRNWTASITDEVAGEVKSYKHFTYLRVFNGGHMVPFDVPENALSMVNEWIHGGFSL
fa (fraction of aminolysis) [1]: 0.72
Pmax (peak product yield) ([2]; leaving group A): 0.63
fa [2, 10]: 0.73
t [2, 11]: 14 min
Pmax (peak product yield) ([2]; leaving group I): 0
fa [2, 12]: 0
t ([2]; leaving group I, 50% substrate consumption, 375 mM H-Leu-NH2, 2 mM substrate, [E] 0.1 mg/mL): 26 min
Pmax (peak product yield) ([2]; leaving group L): 0.01
fa [2, 13]: 0.01
t ([2]; leaving group L, 50% substrate consumption, 375 mM H-Leu-NH2, 2 mM substrate, [E] 0.1 mg/mL): 2.1 min
Pmax (peak product yield) ([2]; leaving group M): 0
fa [2, 14]: 0
t ([2]; leaving group M, 50% substrate consumption, 375 mM H-Leu-NH2, 2 mM substrate, [E] 0.1 mg/mL): 28 min
Pmax (peak product yield) ([2]; leaving group S): 0.38
fa ([2]; leaving group S, 50% substrate consumption): 0.65
t ([2]; leaving group S, 50% substrate consumption, 375 mM H-Leu-NH2, 2 mM substrate, [E] 0.1 mg/mL): 790 min
Pmax (peak product yield) ([2]; leaving group V): 0
fa [2, 15]: 0
t ([2]; leaving group V, 50% substrate consumption, 375 mM H-Leu-NH2, 2 mM substrate, [E] 0.1 mg/mL): 40 min
Pmax (peak product yield) ([3]; leaving group A): 0.74
fa ([3]; leaving group A): 0.79
t ([3]; leaving group A): 34 min
Pmax (peak product yield) ([3]; leaving group L): 0.03
fa ([3]; leaving group L): 0.03
t ([3]; leaving group L): 17 min
Pmax (peak product yield) ([3]; leaving group S): 0.63
fa ([3]; leaving group S): 0.34
t ([3]; leaving group S): 108 min
Pmax [4]: 0.61
Pmax [5]: 0.76
fa [5]: 0.89
fa [6]: 0.77

B2: Wild type: wild type (native) carboxypeptidase Y (protein, UniProt P00729 112-532, looked up)
Carboxypeptidase Y: B1 Carboxypeptidase Y with S178L
fa (fraction of aminolysis) [1]: 0.05
Fraction of aminolysis (fa), P1' Ala ([7]; FA-Ala-Ala-OH 0.2 mM): 0.90
Fraction of aminolysis (fa), P1' Leu ([7]; FA-Ala-Leu-OH 0.2 mM): 0.20
Fraction of aminolysis (fa), P1' Met ([7]; FA-Ala-Met-OH 0.2 mM): 0.18
Fraction of aminolysis (fa), P1' Phe ([7]; FA-Ala-Phe-OH 0.2 mM): 0.04
Fraction of aminolysis (fa), P1' Val ([7]; FA-Ala-Val-OH 0.2 mM): 0.16
fa [8]: 0.95^a
Pmax (peak product yield) ([2]; leaving group A): 0
fa [2, 10]: <0.05
t(min) [2, 11]: ca. 110000 min
Pmax (peak product yield) ([2]; leaving group I): 0
fa [2, 12]: <0.05
Pmax (peak product yield) ([2]; leaving group L): 0
fa [2, 13]: <0.05
Pmax (peak product yield) ([2]; leaving group M): 0
fa [2, 14]: <0.05
Pmax (peak product yield) ([2]; leaving group V): 0
fa [2, 15]: <0.05
FA-Arg-Ala-OH hydrolyzed more slowly than FA-Leu-Ala-OH [9]: about 500 times
